{"source": "patent US20150368311A1", "about": "(Sanofi, published 2015)", "key": {"human glucagon receptor": {"biological_target": "human glucagon receptor (human, UniProt P47871 26-477)", "sequence (P47871 26-477)": "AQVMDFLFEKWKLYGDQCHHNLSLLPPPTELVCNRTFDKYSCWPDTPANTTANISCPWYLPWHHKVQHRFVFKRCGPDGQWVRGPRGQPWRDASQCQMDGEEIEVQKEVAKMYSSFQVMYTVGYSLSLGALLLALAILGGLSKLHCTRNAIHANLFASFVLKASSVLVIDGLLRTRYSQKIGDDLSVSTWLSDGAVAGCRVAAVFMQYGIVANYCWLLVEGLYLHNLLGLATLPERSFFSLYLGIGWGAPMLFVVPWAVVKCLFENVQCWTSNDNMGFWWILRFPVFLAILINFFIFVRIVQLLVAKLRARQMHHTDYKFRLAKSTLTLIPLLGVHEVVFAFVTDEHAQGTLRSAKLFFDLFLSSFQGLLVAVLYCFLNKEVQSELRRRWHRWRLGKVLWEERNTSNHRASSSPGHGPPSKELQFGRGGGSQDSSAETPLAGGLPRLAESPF", "experiment": "cell-based or functional assay"}, "human GLP-1 receptor": {"biological_target": "human GLP-1 receptor (human, UniProt P43220 24-463)", "experiment": "cell-based or functional assay"}}, "note": "Non-standard residues stand in square brackets, D forms with d. No end group written: not given here. Ala(4-thiazolyl) = N[C@@H](Cc1cscn1)C(=O)O; Nle = CCCC[C@H](N)C(=O)O"}
{"binder": "[Ala(4-thiazolyl)]SQGTFTSDVSKQLESRRAQEFIEWLLAGGPESGAPPPS-OH (N-terminus assumed; SMILES CC[C@H](C)[C@H](NC(=O)[C@H](Cc1ccccc1)NC(=O)[C@H](CCC(=O)O)NC(=O)[C@H](CCC(N)=O)NC(=O)[C@H](C)NC(=O)[C@H](CCCNC(=N)N)NC(=O)[C@H](CCCNC(=N)N)NC(=O)[C@H](CO)NC(=O)[C@H](CCC(=O)O)NC(=O)[C@H](CC(C)C)NC(=O)[C@H](CCC(N)=O)NC(=O)[C@H](CCCCN)NC(=O)[C@H](CO)NC(=O)[C@@H](NC(=O)[C@H](CC(=O)O)NC(=O)[C@H](CO)NC(=O)[C@@H](NC(=O)[C@H](Cc1ccccc1)NC(=O)[C@@H](NC(=O)CNC(=O)[C@H](CCC(N)=O)NC(=O)[C@H](CO)NC(=O)[C@@H](N)Cc1cscn1)[C@@H](C)O)[C@@H](C)O)C(C)C)C(=O)N[C@@H](CCC(=O)O)C(=O)N[C@@H](Cc1c[nH]c2ccccc12)C(=O)N[C@@H](CC(C)C)C(=O)N[C@@H](CC(C)C)C(=O)N[C@@H](C)C(=O)NCC(=O)NCC(=O)N1CCC[C@H]1C(=O)N[C@@H](CCC(=O)O)C(=O)N[C@@H](CO)C(=O)NCC(=O)N[C@@H](C)C(=O)N1CCC[C@H]1C(=O)N1CCC[C@H]1C(=O)N1CCC[C@H]1C(=O)N[C@@H](CO)C(=O)O)", "note": "[SEQ ID NO: 9]", "values": [{"measurement": "EC50 hGLUC R [pM], cAMP formation", "setting": "human glucagon receptor", "result": 2.2, "unit": "pM"}, {"measurement": "EC50 hGLP-1 R [pM], cAMP formation", "setting": "human GLP-1 receptor", "result": 12200, "unit": "pM"}]}
{"binder": "[Ala(4-thiazolyl)]SQGTFTSDFSKQ[Nle]ESRRAQDFIEWLLATGPESGAPPPS-OH (N-terminus assumed; SMILES CCCC[C@H](NC(=O)[C@H](CCC(N)=O)NC(=O)[C@H](CCCCN)NC(=O)[C@H](CO)NC(=O)[C@H](Cc1ccccc1)NC(=O)[C@H](CC(=O)O)NC(=O)[C@H](CO)NC(=O)[C@@H](NC(=O)[C@H](Cc1ccccc1)NC(=O)[C@@H](NC(=O)CNC(=O)[C@H](CCC(N)=O)NC(=O)[C@H](CO)NC(=O)[C@@H](N)Cc1cscn1)[C@@H](C)O)[C@@H](C)O)C(=O)N[C@@H](CCC(=O)O)C(=O)N[C@@H](CO)C(=O)N[C@@H](CCCNC(=N)N)C(=O)N[C@@H](CCCNC(=N)N)C(=O)N[C@@H](C)C(=O)N[C@@H](CCC(N)=O)C(=O)N[C@@H](CC(=O)O)C(=O)N[C@@H](Cc1ccccc1)C(=O)N[C@H](C(=O)N[C@@H](CCC(=O)O)C(=O)N[C@@H](Cc1c[nH]c2ccccc12)C(=O)N[C@@H](CC(C)C)C(=O)N[C@@H](CC(C)C)C(=O)N[C@@H](C)C(=O)N[C@H](C(=O)NCC(=O)N1CCC[C@H]1C(=O)N[C@@H](CCC(=O)O)C(=O)N[C@@H](CO)C(=O)NCC(=O)N[C@@H](C)C(=O)N1CCC[C@H]1C(=O)N1CCC[C@H]1C(=O)N1CCC[C@H]1C(=O)N[C@@H](CO)C(=O)O)[C@@H](C)O)[C@@H](C)CC)", "note": "[SEQ ID NO: 13]", "values": [{"measurement": "EC50 hGLUC R [pM], cAMP formation", "setting": "human glucagon receptor", "result": 3.1, "unit": "pM"}, {"measurement": "EC50 hGLP-1 R [pM], cAMP formation", "setting": "human GLP-1 receptor", "result": 32100, "unit": "pM"}]}
{"binder": "XSQGTFTSDISKQXESRRAQEFIEWLLATGPESGAPPPS (Tza (L-4-thiazolylalanine) at position 1; Nle at position 14; C-terminal -OH)", "note": "[SEQ ID NO: 14]", "values": [{"measurement": "EC50 hGLUC R [pM], cAMP formation", "setting": "human glucagon receptor", "result": 1.2, "unit": "pM"}, {"measurement": "EC50 hGLP-1 R [pM], cAMP formation", "setting": "human GLP-1 receptor", "result": 52900, "unit": "pM"}]}
{"binder": "XSQGTFTSDYSKQXESRRAQEFIEWLLATGPESGAPPPS (Tza (L-4-thiazolylalanine) at position 1; Nle at position 14; C-terminal -OH)", "note": "[SEQ ID NO: 17]", "values": [{"measurement": "EC50 hGLUC R [pM], cAMP formation", "setting": "human glucagon receptor", "result": 1, "unit": "pM"}, {"measurement": "EC50 hGLP-1 R [pM], cAMP formation", "setting": "human GLP-1 receptor", "result": 6940, "unit": "pM"}]}
